Among the data in US20210032299A1 (Eli Lilly, published 2021) are Ki values, retold here.

Starred links: 1 amine or outer side, 2 acyl side, 3 side chain; linkers in the order of their positions; H or OH if unused. Non-standard residues stand in square brackets, D forms with d. Groups on a side chain read outwards from the residue. No end group written: not given here. *: point of attachment. C20 diacid = O=C(O)CCCCCCCCCCCCCCCCCCC(=O)*; C18 diacid = O=C(O)CCCCCCCCCCCCCCCCC(=O)*; γGlu = O=C(O)[C@H](CCC(=O)[*:2])N[*:1]; αMeF = C[C@](N)(Cc1ccccc1)C(=O)O; 4Pal = N[C@@H](Cc1ccncc1)C(=O)O; αMeL = CC(C)C[C@](C)(N)C(=O)O; AEEA = NCCOCCOCC(=O)O; Aib = CC(C)(N)C(=O)O

What is called Ki is a dissociation constant, usually derived from enzyme kinetics or from competition with a known ligand.

The target of one assay is T1, human GLP-1 receptor (human, UniProt P43220 24-463).
T1 construct: whole, on cells; Assayed as crude membranes of stably transfected HEK293 cells; also called hGLP1R; hGLP-1R
As to the kind of experiment: SPA, displacement of [125I]-GLP-1 from hGLP-1R membranes, 0.1% bacitracin. How it is done:
The binding buffer contains 25 mM HEPES, pH 7.4, 2.5 mM CaCl₂, 1 mM MgCl₂, 0.1% (w/v) bacitracin, 0.003% (w/v) TWEEN®-20, and Roche Complete™ Protease Inhibitors without EDTA.
Data are analyzed using four-parameter (curve maximum, curve minimum, […], Hill slope) nonlinear regression routines (Genedata Screener, version 12.0.4, Genedata AG, Basal, Switzerland). […] Values for Kᵢ are reported as the geometric mean, with error expressed as the standard error of the mean (SEM) and n is equal to the number of independent replicates (determined in assays performed on different days). Geometric Means are calculated as follows: […]

The target in assay [1] is T2, human glucose-dependent insulinotropic polypeptide (GIP) receptor (human, UniProt P48546 22-466).
T2 construct: whole, on cells; Assayed as crude membranes of stably transfected CHO cells; also called hGIPR; human GIP receptor
T2 sequence (looked up): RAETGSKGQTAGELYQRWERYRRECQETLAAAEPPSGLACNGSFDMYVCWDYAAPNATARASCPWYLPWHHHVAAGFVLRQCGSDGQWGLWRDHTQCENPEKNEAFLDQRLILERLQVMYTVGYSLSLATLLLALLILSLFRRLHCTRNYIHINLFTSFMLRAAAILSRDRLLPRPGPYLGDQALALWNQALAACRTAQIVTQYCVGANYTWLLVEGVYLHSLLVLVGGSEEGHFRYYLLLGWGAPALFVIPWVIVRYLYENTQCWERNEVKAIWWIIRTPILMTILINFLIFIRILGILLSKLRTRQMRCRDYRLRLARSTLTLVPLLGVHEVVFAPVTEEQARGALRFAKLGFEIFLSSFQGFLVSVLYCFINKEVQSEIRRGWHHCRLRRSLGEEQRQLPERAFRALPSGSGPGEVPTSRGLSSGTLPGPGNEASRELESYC
Kind of assay: SPA, displacement of [125I]-GIP from hGIPR membranes, 0.1% bacitracin.

A further assay addresses T3, human glucagon receptor (human, UniProt P47871 26-477).
T3 construct: whole, on cells; Assayed as crude membranes of stably transfected HEK293 cells; also called hGcgR; GcgR
Kind of assay: SPA, displacement of [125I]-Gcg from hGcgR membranes, 0.1% bacitracin. On the procedure: The binding buffer contains 25 mM 4-(2-hydroxyethyl)-1-piperazineethanesulfonic acid (HEPES), pH 7.4, 2.5 mM CaCl₂), 1 mM MgCl₂, 0.1% (w/v) bacitracin (Research Products), 0.003% (w/v) Polyoxyethylenesorbitan monolaurate (TWEEN®-20), and Roche Complete™ Protease Inhibitors without EDTA. […] Plates are sealed and mixed on a plate shaker (setting 6) for 1 minute and read with a PerkinElmer Trilux MicroBeta® scintillation counter after 12 hours of incubation/settling time at room temperature.
Data are analyzed using four-parameter (curve maximum, curve minimum, […], Hill slope) nonlinear regression routines (Genedata Screener, version 12.0.4, Genedata AG, Basal, Switzerland). […] Values for Kᵢ are reported as the geometric mean, with error expressed as the standard error of the mean (SEM) and n is equal to the number of independent replicates (determined in assays performed on different days).
(Displacement assays read how much labelled ligand stays bound in the presence of the test substance.)

T3 sequence (P47871 26-477): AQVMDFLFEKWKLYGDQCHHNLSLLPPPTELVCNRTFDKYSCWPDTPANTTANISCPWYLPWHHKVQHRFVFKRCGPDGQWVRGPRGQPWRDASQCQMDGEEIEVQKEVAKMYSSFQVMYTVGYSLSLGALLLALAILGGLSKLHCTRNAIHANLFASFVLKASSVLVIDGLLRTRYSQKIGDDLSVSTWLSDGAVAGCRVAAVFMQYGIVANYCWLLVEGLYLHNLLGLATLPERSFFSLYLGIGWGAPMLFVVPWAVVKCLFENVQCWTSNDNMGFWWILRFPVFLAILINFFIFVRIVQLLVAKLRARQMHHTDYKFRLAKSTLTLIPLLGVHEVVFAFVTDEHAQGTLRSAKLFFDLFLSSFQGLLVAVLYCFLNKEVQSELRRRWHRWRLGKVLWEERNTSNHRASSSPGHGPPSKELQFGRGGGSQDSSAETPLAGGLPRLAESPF

B1: Example 21 (peptide)
peptide: Y[Aib]EGTFISDYSIALDKK([AEEA-AEEA-γGlu-C18 diacid])HQ[Aib]DFVE[4Pal]LLAGGPSSGAPPPS-NH2
modifications: N-terminus assumed
SMILES: CC[C@H](C)[C@H](NC(=O)[C@H](CO)NC(=O)[C@H](Cc1ccc(O)cc1)NC(=O)[C@H](CC(=O)O)NC(=O)[C@H](CO)NC(=O)[C@@H](NC(=O)[C@H](Cc1ccccc1)NC(=O)[C@@H](NC(=O)CNC(=O)[C@H](CCC(=O)O)NC(=O)C(C)(C)NC(=O)[C@@H](N)Cc1ccc(O)cc1)[C@@H](C)O)[C@@H](C)CC)C(=O)N[C@@H](C)C(=O)N[C@@H](CC(C)C)C(=O)N[C@@H](CC(=O)O)C(=O)N[C@@H](CCCCN)C(=O)N[C@@H](CCCCNC(=O)COCCOCCNC(=O)COCCOCCNC(=O)CC[C@H](NC(=O)CCCCCCCCCCCCCCCCC(=O)O)C(=O)O)C(=O)N[C@@H](Cc1c[nH]cn1)C(=O)N[C@@H](CCC(N)=O)C(=O)NC(C)(C)C(=O)N[C@@H](CC(=O)O)C(=O)N[C@@H](Cc1ccccc1)C(=O)N[C@H](C(=O)N[C@@H](CCC(=O)O)C(=O)N[C@@H](Cc1ccncc1)C(=O)N[C@@H](CC(C)C)C(=O)N[C@@H](CC(C)C)C(=O)N[C@@H](C)C(=O)NCC(=O)NCC(=O)N1CCC[C@H]1C(=O)N[C@@H](CO)C(=O)N[C@@H](CO)C(=O)NCC(=O)N[C@@H](C)C(=O)N1CCC[C@H]1C(=O)N1CCC[C@H]1C(=O)N1CCC[C@H]1C(=O)N[C@@H](CO)C(N)=O)C(C)C
Consider B1, for which the Ki with human GLP-1 receptor stood at 801 nM; in assay [1], 1.46 nM.

B2: Example 49 (peptide)
peptide: Y[Aib]EGTFISDYSI[αMeL]LDKK([AEEA-AEEA-γGlu-C18 diacid])HQ[Aib]DFVE[4Pal]LLAGGPSSGAPPPS-NH2
modifications: N-terminus assumed
SMILES: CC[C@H](C)[C@H](NC(=O)[C@H](Cc1ccccc1)NC(=O)[C@@H](NC(=O)CNC(=O)[C@H](CCC(=O)O)NC(=O)C(C)(C)NC(=O)[C@@H](N)Cc1ccc(O)cc1)[C@@H](C)O)C(=O)N[C@@H](CO)C(=O)N[C@@H](CC(=O)O)C(=O)N[C@@H](Cc1ccc(O)cc1)C(=O)N[C@@H](CO)C(=O)N[C@H](C(=O)N[C@@](C)(CC(C)C)C(=O)N[C@@H](CC(C)C)C(=O)N[C@@H](CC(=O)O)C(=O)N[C@@H](CCCCN)C(=O)N[C@@H](CCCCNC(=O)COCCOCCNC(=O)COCCOCCNC(=O)CC[C@H](NC(=O)CCCCCCCCCCCCCCCCC(=O)O)C(=O)O)C(=O)N[C@@H](Cc1c[nH]cn1)C(=O)N[C@@H](CCC(N)=O)C(=O)NC(C)(C)C(=O)N[C@@H](CC(=O)O)C(=O)N[C@@H](Cc1ccccc1)C(=O)N[C@H](C(=O)N[C@@H](CCC(=O)O)C(=O)N[C@@H](Cc1ccncc1)C(=O)N[C@@H](CC(C)C)C(=O)N[C@@H](CC(C)C)C(=O)N[C@@H](C)C(=O)NCC(=O)NCC(=O)N1CCC[C@H]1C(=O)N[C@@H](CO)C(=O)N[C@@H](CO)C(=O)NCC(=O)N[C@@H](C)C(=O)N1CCC[C@H]1C(=O)N1CCC[C@H]1C(=O)N1CCC[C@H]1C(=O)N[C@@H](CO)C(N)=O)C(C)C)[C@@H](C)CC
As for B2, the figures for the Ki (with human GLP-1 receptor; in assay [1]) were 596 nM and 0.0512 nM, respectively.

B3: Example 35 (peptide)
peptide: Y[Aib]EGT[αMeL]ISDYSIALDKK([AEEA-AEEA-γGlu-C20 diacid])HQ[Aib]EFVNYLLATGPSSGAPPPS-NH2
modifications: N-terminus assumed
SMILES: CC[C@H](C)[C@H](NC(=O)[C@H](CO)NC(=O)[C@H](Cc1ccc(O)cc1)NC(=O)[C@H](CC(=O)O)NC(=O)[C@H](CO)NC(=O)[C@@H](NC(=O)[C@](C)(CC(C)C)NC(=O)[C@@H](NC(=O)CNC(=O)[C@H](CCC(=O)O)NC(=O)C(C)(C)NC(=O)[C@@H](N)Cc1ccc(O)cc1)[C@@H](C)O)[C@@H](C)CC)C(=O)N[C@@H](C)C(=O)N[C@@H](CC(C)C)C(=O)N[C@@H](CC(=O)O)C(=O)N[C@@H](CCCCN)C(=O)N[C@@H](CCCCNC(=O)COCCOCCNC(=O)COCCOCCNC(=O)CC[C@H](NC(=O)CCCCCCCCCCCCCCCCCCC(=O)O)C(=O)O)C(=O)N[C@@H](Cc1c[nH]cn1)C(=O)N[C@@H](CCC(N)=O)C(=O)NC(C)(C)C(=O)N[C@@H](CCC(=O)O)C(=O)N[C@@H](Cc1ccccc1)C(=O)N[C@H](C(=O)N[C@@H](CC(N)=O)C(=O)N[C@@H](Cc1ccc(O)cc1)C(=O)N[C@@H](CC(C)C)C(=O)N[C@@H](CC(C)C)C(=O)N[C@@H](C)C(=O)N[C@H](C(=O)NCC(=O)N1CCC[C@H]1C(=O)N[C@@H](CO)C(=O)N[C@@H](CO)C(=O)NCC(=O)N[C@@H](C)C(=O)N1CCC[C@H]1C(=O)N1CCC[C@H]1C(=O)N1CCC[C@H]1C(=O)N[C@@H](CO)C(N)=O)[C@@H](C)O)C(C)C
Take B3: the Ki in the assay with human GLP-1 receptor amounted to 177 nM; in assay [1] it was 0.0351 nM.

B4: Example 45 (peptide)
peptide: Y[Aib]EGTFISDYSI[αMeL]LDKK([AEEA-AEEA-γGlu-C20 diacid])HQ[Aib]DFVE[4Pal]LLETGPSSGAPPPS-NH2
modifications: N-terminus assumed
SMILES: CC[C@H](C)[C@H](NC(=O)[C@H](Cc1ccccc1)NC(=O)[C@@H](NC(=O)CNC(=O)[C@H](CCC(=O)O)NC(=O)C(C)(C)NC(=O)[C@@H](N)Cc1ccc(O)cc1)[C@@H](C)O)C(=O)N[C@@H](CO)C(=O)N[C@@H](CC(=O)O)C(=O)N[C@@H](Cc1ccc(O)cc1)C(=O)N[C@@H](CO)C(=O)N[C@H](C(=O)N[C@@](C)(CC(C)C)C(=O)N[C@@H](CC(C)C)C(=O)N[C@@H](CC(=O)O)C(=O)N[C@@H](CCCCN)C(=O)N[C@@H](CCCCNC(=O)COCCOCCNC(=O)COCCOCCNC(=O)CC[C@H](NC(=O)CCCCCCCCCCCCCCCCCCC(=O)O)C(=O)O)C(=O)N[C@@H](Cc1c[nH]cn1)C(=O)N[C@@H](CCC(N)=O)C(=O)NC(C)(C)C(=O)N[C@@H](CC(=O)O)C(=O)N[C@@H](Cc1ccccc1)C(=O)N[C@H](C(=O)N[C@@H](CCC(=O)O)C(=O)N[C@@H](Cc1ccncc1)C(=O)N[C@@H](CC(C)C)C(=O)N[C@@H](CC(C)C)C(=O)N[C@@H](CCC(=O)O)C(=O)N[C@H](C(=O)NCC(=O)N1CCC[C@H]1C(=O)N[C@@H](CO)C(=O)N[C@@H](CO)C(=O)NCC(=O)N[C@@H](C)C(=O)N1CCC[C@H]1C(=O)N1CCC[C@H]1C(=O)N1CCC[C@H]1C(=O)N[C@@H](CO)C(N)=O)[C@@H](C)O)C(C)C)[C@@H](C)CC
Regarding B4, the Ki with human glucagon receptor worked out at 660 nM; in assay [1], 0.0663 nM.

B5: Example 55 (peptide)
peptide: YXEGTXISDYSIXLDKKHQXDFVEXLLAGGPSSGAPPPS
modifications: Aib2; Iva6; αMeL13; K17((2-[2-(2-Amino-ethoxy)-ethoxy]-acetyl)2-(γ-Glu)-CO-(CH2)18-CO2H); Aib20; 4-Pal25; C-terminal amide
Turning to B5, the Ki was 262 nM with human GLP-1 receptor and 0.0331 nM in assay [1].

B6: Example 41 (peptide)
peptide: Y[Aib]EGT[αMeF]ISDYSIALDKK([AEEA-AEEA-γGlu-C20 diacid])HQ[Aib]DFVE[4Pal]LLETGPSSGAPPPS-NH2
modifications: N-terminus assumed
SMILES: CC[C@H](C)[C@H](NC(=O)[C@H](CO)NC(=O)[C@H](Cc1ccc(O)cc1)NC(=O)[C@H](CC(=O)O)NC(=O)[C@H](CO)NC(=O)[C@@H](NC(=O)[C@](C)(Cc1ccccc1)NC(=O)[C@@H](NC(=O)CNC(=O)[C@H](CCC(=O)O)NC(=O)C(C)(C)NC(=O)[C@@H](N)Cc1ccc(O)cc1)[C@@H](C)O)[C@@H](C)CC)C(=O)N[C@@H](C)C(=O)N[C@@H](CC(C)C)C(=O)N[C@@H](CC(=O)O)C(=O)N[C@@H](CCCCN)C(=O)N[C@@H](CCCCNC(=O)COCCOCCNC(=O)COCCOCCNC(=O)CC[C@H](NC(=O)CCCCCCCCCCCCCCCCCCC(=O)O)C(=O)O)C(=O)N[C@@H](Cc1c[nH]cn1)C(=O)N[C@@H](CCC(N)=O)C(=O)NC(C)(C)C(=O)N[C@@H](CC(=O)O)C(=O)N[C@@H](Cc1ccccc1)C(=O)N[C@H](C(=O)N[C@@H](CCC(=O)O)C(=O)N[C@@H](Cc1ccncc1)C(=O)N[C@@H](CC(C)C)C(=O)N[C@@H](CC(C)C)C(=O)N[C@@H](CCC(=O)O)C(=O)N[C@H](C(=O)NCC(=O)N1CCC[C@H]1C(=O)N[C@@H](CO)C(=O)N[C@@H](CO)C(=O)NCC(=O)N[C@@H](C)C(=O)N1CCC[C@H]1C(=O)N1CCC[C@H]1C(=O)N1CCC[C@H]1C(=O)N[C@@H](CO)C(N)=O)[C@@H](C)O)C(C)C
Turning to B6, the Ki in the assay with human glucagon receptor was determined as 758 nM; in assay [1] it was 0.143 nM.
